Measurements published in article PMC9012491, “Engineering the Single Domain Antibodies Targeting Receptor Binding Motifs Within the Domain III of West Nile Virus Envelope Glycoprotein” (Frontiers in Microbiology, 2022).

T1: synthetic analog of the receptor binding motif DIII-1^G299–K307 (West Nile virus; residues agree with …, biotinylated C-terminal lysine)
T1 construct: numbers count on: the E glycoprotein; rDIII is of strain goshawk (GenBank DQ116961.1); also called DIII-1^L299–K307 (so printed in the discussion); source: synthetic peptide (Caslo)
T1 chain: GTTYGVCSK

T2: synthetic analog of the receptor binding motif DIII-2^V371–R388 (West Nile virus; residues agree with …, biotinylated C-terminal lysine)
T2 construct: numbers count on: the E glycoprotein; rDIII is of strain goshawk (GenBank DQ116961.1); source: synthetic peptide (Caslo)
T2 chain: VLIELEPPFGDSYIVVGR


What was measured:
[1] = molecular target: T1, synthetic analog of the receptor …; test: far-Western, overlay or dot blot; dot blot: purified sdAbs (1 μl) spotted on nitrocellulose, blocked with 5% BSA; biotinylated peptide 1 μg/ml in phosphate buffer pH 7.0, 1 h; streptavidin-HRP; conditions: both partners purified
[2] = molecular target: T2, synthetic analog of the receptor …; test: as above; conditions: both partners purified

Binder	binding result [1]	binding result [2]
sdAbA6 (VHH) VHH: EVQVVASGGGLVQPGGSLSLSCAASGFTFSGYDMTWVRQAPGKGLEWVSSINSGGGNTNYADSVKGRFTISRDNAKNTLYLQMNSLKPEDTALYYCARRNDYGSLLAALDAWGQGTLVTVS	binds	
sdAbA10 (VHH, also called sdAbA9) VHH: QVQVLASGGGLVQPGGSLRLSCAASGFTFSSNAMSWVRQAPGKGLEWVSTINSGGSRTTYTDSVKGRFTISRDNAKNTLYLQMNSLKPDDTAVYYCAKARVDLNLHGWGTSYEYDYWGQGTLVTVS		binds
sdAbA1 (VHH) VHH: QVQLLASGPGLVKPSQTLSLTCTVSGGAITSGYYGWSWIRQPPGKELEWMGVIASSGSTYYSPSLKSRTSISRDTSKSQFTLQLSSVTPEDTAVYYCARDAIQGPNFLYDYWGQGTLVTVS	binds	
